Reference: patent US9018171B2, “Uses of an immunomodulatory protein (GMI) from Ganoderma microsporum” (Mycomagic Biotechnology Co., Ltd., priority 2010, dated 2015)
Where two headings read alike, the source gives them in different places.

What was measured:
[1] = system: A549 cells; assay: Wound-healing assay; type: cell-based, human; conditions: 24 h
Method: Wound-healing assay was carried out to evaluate the inhibitory effects of (A) GMI or (B) AG1478 on A549 cell migration. Confluent monolayers of A549 cells were scarred, and repair was monitored microscopically after 24 h of treatment with (A) GMI or (B) AG1478. The cells migrating into the wound area were counted on the basis of the dashed line as time zero. On wound-healing assay, the cancer cells were cultured onto 24-well plates and grown in medium containing 10% FBS to nearly confluent cell monolayer. A plastic pipette tip was used to draw a linear “wound” in the cell monolayer of each well. The monolayer was then washed twice with PBS to remove debris or detached cells, and GMI was added at different concentrations ([…]). PBS was added to the control well as the solvent control. After 24 h of incubation, the cells were washed twice with PBS, fixed with 95% alcohol, and stained with 10% Giemsa solution (Merck). The cells were photographed under a light microscope (magnification, ×200). The experiments were performed in triplicate. After incubation with 2-8 μg/ml of GMI for 24 h, the cells that migrated to the denuded zone were photographed.

[2] = system: A549/ATCC; type: cell-based
[3] = system: RXF 393; assay: NCI60 in vitro screening, Renal Cancer; type: cell-based
[4] = system: TK-10; assay: NCI60 in vitro screening, Renal Cancer; type: cell-based

B1: GMI: immunomodulatory protein from Ganoderma microsporum, amino acid sequence SEQ ID NO: 3, manufactured by Mycomagic Biotechnology Co., Ltd. (protein, listed as Ganoderma microsporum)
chain: MSDTALIFTLAWNVKQLAFDYTPNWGRGRPSSFIDTVTFPTVLTDKAYTYRVVVSGKDLGVRPSYAVESDGSQKINFLEYNSGYGIADTNTIQVYVIDPDTGNNFIVAQWN
In the case of B1, the “A549 cell migration to the denuded zone” value ([1]; GMI 2-8 μg/ml) is reported as “dose-dependently suppresses A549 cell migration”, the “EGF-induced migration / wound closure activity” value ([1]; co-treated with EGF) is reported as “markedly decreased wound closure activity” and the TGI [2] is reported as greater than 1.25E2. For the same molecule, the “Percent Growth” value ([2]; Log10 Concentration 0.1) was 94%, the “Percent Growth” value ([2]; Log10 Concentration 1.1) was 51% and the “Percent Growth” value ([2]; Log10 Concentration 2.1) was 8%. The “Percent Growth” value ([2]; Log10 Concentration −0.9) was 99%, the “Percent Growth” value ([2]; Log10 Concentration −1.9) was 102% and the GI50 ([2]; in µg/mL) was 1.31E1. The “Growth Percent” value ([2]; one dose) was 44.29%, the TGI ([3]; RXF 393) was 4.72E1 and the “Percent Growth” value ([3]; RXF 393, Log10 Concentration 0.1) was 101%. The “Percent Growth” value ([3]; RXF 393, Log10 Concentration 1.1) was 76%, the “Percent Growth” value ([3]; RXF 393, Log10 Concentration 2.1) was −56% and the “Percent Growth” value ([3]; RXF 393, Log10 Concentration −0.9) was 101%. The “Percent Growth” value ([3]; RXF 393, Log10 Concentration −1.9) was 101%, the “Growth Percent” value ([3]; RXF 393, one dose) was 38.93% and the GI50 ([3]; RXF 393, in µg/mL) was 1.97E1. For the same molecule, the LC50 ([3]; RXF 393, in µg/mL) was 1.13E2, the TGI ([4]; TK-10) was 4.91E0 and the “Percent Growth” value ([4]; TK-10, Log10 Concentration 0.1) was 106%. The “Percent Growth” value ([4]; TK-10, Log10 Concentration 1.1) was −72%, the “Percent Growth” value ([4]; TK-10, Log10 Concentration 2.1) was −100% and the “Percent Growth” value ([4]; TK-10, Log10 Concentration −0.9) was 98%. The “Percent Growth” value ([4]; TK-10, Log10 Concentration −1.9) was 96%, the “Growth Percent” value ([4]; TK-10, one dose) was −92.37% and the GI50 ([4]; TK-10, in µg/mL) was 2.57E0. For the same molecule, the LC50 ([4]; TK-10, in µg/mL) was 9.38E0.
